According to US20200071394A1 (HUABO BIOPHARM SHANGHAI, published 2020):
Like-named read-outs stand apart in the source and are kept apart here.

Assays:
[1] = target: T1, Recombinant Mouse IL-17A, Sino Biological, PBV10159R-010 (mouse, UniProt Q62386 26-158); assay: indirect ELISA, mouse IL-17A coated
T1 construct: also called murine IL-17A
T1 sequence (looked up): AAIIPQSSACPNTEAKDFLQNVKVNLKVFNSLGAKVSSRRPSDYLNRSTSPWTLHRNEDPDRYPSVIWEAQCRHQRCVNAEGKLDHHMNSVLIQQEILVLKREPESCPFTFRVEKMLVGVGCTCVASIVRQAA
Protocol: (§1) Human IL-17A was formulated into a 1 μg/ml coating solution with CBS, and added to the ELISA plate at 50 μL/well, and the plate was coated at 2 to 8° C. for 12 hours or longer. The residue coating solution was discarded, 3% milk was added, 200 μL per well, and the plate was blocked at room temperature for 1 hour. Each well was washed with not less than 200 μL of PBST, and the hybridoma supernatant was diluted to 100 μg/ml, and was 10-fold diluted for 10 gradients, and added to the plate at 100 μL/well. […] After incubating for 1 hour at room temperature, each well was added with not less than 200 μL of PBST and washed 4 times, and patted to dryness. TMB development solution was added at 100 μL per well. After reacting for 5 minutes at room temperature, the reaction was quenched by adding 2M H₂SO₄ at 50 μL/well. After the reaction was quenched, the ELISA plate was placed on a microplate reader, and the absorbance OD450 value was read at a wavelength of 450 nm.

[2] = target: T2, Recombinant Human IL-17A, Sino Biological, 12047-HNAS (human, UniProt Q16552 24-155); assay: indirect ELISA, human IL-17A coated
T2 construct: range 24-155; Bought recombinant protein; also called huIL-17A
T2 sequence (Q16552 24-155 limits assumed, form in doubt): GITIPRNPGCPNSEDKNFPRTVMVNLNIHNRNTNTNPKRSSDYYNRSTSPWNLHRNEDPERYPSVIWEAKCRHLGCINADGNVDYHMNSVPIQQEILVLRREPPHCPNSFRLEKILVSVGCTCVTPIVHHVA
Protocol: as §1

[3] = target: T2, Recombinant Human IL-17A, Sino …; assay: indirect ELISA, human IL-17A coated, hybridoma supernatant
Protocol: as §1

[4] = target: T3, Recombinant human IL-17E, ABGENT, PBV10154r (human, UniProt Q9H293 33-177, limits assumed); assay: indirect ELISA, IL-17E coated at 1 µg/ml
T3 construct: The catalogue number printed is the same as that printed for rat IL-17A; also called IL-25
T3 sequence (looked up): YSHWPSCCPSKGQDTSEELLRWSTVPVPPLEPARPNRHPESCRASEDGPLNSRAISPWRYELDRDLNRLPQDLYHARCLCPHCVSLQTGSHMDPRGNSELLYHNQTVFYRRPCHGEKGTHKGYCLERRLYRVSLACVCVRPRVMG
Protocol: as §1

[5] = target: T2, Recombinant Human IL-17A, Sino …; assay: indirect ELISA, human IL-17A coated; remark: listed apart in the source
Protocol: as §1

[6] = target: T2, Recombinant Human IL-17A, Sino …; assay: SPR (Biacore), antibody captured by anti-human antibody on the chip, IL-17A as analyte, 1:1 model
Protocol: In this example, the antigen-antibody binding kinetics and affinity were determined using BIACORE method.
Human Antibody Capture Antiboy was amino-coupled immobilized on the Sereis S Sensor Chip CMS chip using Amine Coupling Kit, anti-Human Capture-CMS chip. The chip was placed at room temperature for 20-30 mins, and loaded into the instrument. The antigen was diluted with equilibration buffer at an initial dilution of lOnM, and was diluted for 5 concentration gradients. 2 zero concentrations (i.e., equilibration buffer) and one repeat concentration (generally the lowest concentration repeat) were set. The antibody sample was diluted to the experimental working concentration with an equilibration buffer and sealed at 2-8° C.

[7] = target: T2, Recombinant Human IL-17A, Sino …; assay: cell-based or functional assay
[8] = target: T4, Recombinant human IL-17D, Sino Biological, 10076-H08S (human, UniProt Q8TAD2 16-202); assay: indirect ELISA, IL-17D coated at 1 µg/ml
T4 sequence (looked up): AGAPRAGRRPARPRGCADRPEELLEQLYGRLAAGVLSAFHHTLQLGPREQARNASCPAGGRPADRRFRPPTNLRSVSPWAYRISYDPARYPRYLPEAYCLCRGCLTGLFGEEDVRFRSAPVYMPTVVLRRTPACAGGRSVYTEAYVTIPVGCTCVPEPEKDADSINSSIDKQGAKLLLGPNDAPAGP
Protocol: as §1

[9] = target: T2, Recombinant Human IL-17A, Sino …; assay: indirect ELISA, human IL-17A coated; remark: listed apart in the source
Protocol: as §1

[10] = target: T2, Recombinant Human IL-17A, Sino …; assay: cell-based or functional assay; remark: listed apart in the source
[11] = target: T5, Recombinant human IL-17B, R&D, 8129-IL (human, UniProt Q9UHF5 21-180); assay: indirect ELISA, IL-17B coated at 1 µg/ml
T5 sequence (looked up): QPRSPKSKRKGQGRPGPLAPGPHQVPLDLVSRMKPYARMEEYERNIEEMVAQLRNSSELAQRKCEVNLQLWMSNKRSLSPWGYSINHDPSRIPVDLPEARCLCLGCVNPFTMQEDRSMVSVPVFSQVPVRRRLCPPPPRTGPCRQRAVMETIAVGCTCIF

[12] = target: T2, Recombinant Human IL-17A, Sino …; assay: indirect ELISA, human IL-17A coated; remark: listed apart in the source
[13] = target: T6, Recombinant rat IL-17A, ABGENT, PBV10154r (rat, UniProt Q61453 18-150, limits assumed); assay: indirect ELISA, rat IL-17A coated
T6 sequence (looked up): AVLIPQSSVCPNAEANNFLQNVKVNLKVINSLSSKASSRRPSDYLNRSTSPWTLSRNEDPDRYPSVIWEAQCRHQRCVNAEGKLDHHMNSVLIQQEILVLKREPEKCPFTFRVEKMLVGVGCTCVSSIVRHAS

[14] = target: T2, Recombinant Human IL-17A, Sino …; assay: indirect ELISA, human IL-17A coated; remark: listed apart in the source
Protocol: as §1

[15] = target: T1, Recombinant Mouse IL-17A, Sino …; assay: indirect ELISA, mouse IL-17A coated; remark: listed apart in the source
Protocol: as §1

[16] = target: T7, Recombinant Rhesus IL-17A, Sino Biological, 90306-KNAB (Rhesus, UniProt F6T3G5 24-155); assay: indirect ELISA, Rhesus IL-17A coated
T7 construct: also called macaque IL-17A
T7 sequence (F6T3G5 entry or part of it): as the sequence (Q16552 24-155 limits assumed, form in doubt) above, with T3A, N17T, I77V, P104R counted along it

B1: Chimeric antibody (mouse 7D6/5H8 VH and VL on human IgG1 and k constant regions) (antibody, V domains shown)
VH: QIQLVQSGPELKKPGETVKISCKASEYIFTNYGMNWVKEAPGKAFKWMGWIDTNTGEPTYAEDFKGRFAFSLDSSATSAFLQISNLKDDDTGTYFCANYGWGYFDYWGQGTTLTVSS
VL: DVVMTQTPLSLPVSLRDQASISCISSQSLVHSNGYTYLHWYLQKPGQSPKLLIYKVSNRFSGVPDRFSGSGSGTDFTLKISRVEAADLGVYFCSQSTHVPYTFGGGTKLEIK
notes: Human IgG1 heavy chain constant region and human kappa light chain constant region; Expressed in CHO-K1 cells
EC50 [1]: 0.0392 µg/mL
EC50 [2]: 0.0386 µg/mL

B2: mouse anti-human IL-17A monoclonal antibody of hybridoma 7D6/5H8 (antibody, V domains shown)
VH: B1 VH
VL: B1 VL
notes: Mouse antibody from hybridoma supernatant; also called original murine antibody; IL17-HC1 / IL17-LC1
EC50 [3]: 0.194 µg/mL

B3: humanized anti-IL-17A antibody HB0017 (antibody, human IgG1, V domains shown)
VH: QVQLVQSGSELKKPGASVKVSCKASEYIFTNYGMNWVKQAPGQGFEWMGWIDTNTGEPTYAQGFTGRFVFSLDTSVSTAYLQISSLKAEDTATYYCANYGWGYFDYWGQGTTVTVSS
VL: DVVMTQTPPSLPVNPGEPASISCRSSQSLVHSNGYTYLHWYLQKPGQSPQLLIYKVSNHLSGVPDRFSGSGSGTDFTLKISWVEAEDVGVYFCSQSTHVPYTFGGGTKLEIK
notes: also called HB0017 antibody; HBH17 antibody
binding result [4]: no binding
EC50 [5]: 0.0154 µg/mL
Kd [6]: 19.8 pM
biological activity (IL-6 release by HT1080 cells) against the positive control antibody [7]: ~6 fold
binding result [8]: no binding
EC50 [9]: 0.0154 µg/mL
IC50 of IL-6 release by HT1080 cells stimulated with IL-17A and TNFα [10]: 0.09 µg/mL
binding result [11]: no binding
improvement of EC50 against the chimeric antibody [12]: ~150%
improvement of EC50 against the original murine antibody [12]: ~11.6 times
EC50 [13]: 0.24 µg/mL
EC50 [14]: 0.0154 µg/mL
EC50 [15]: 0.075 µg/mL
EC50 [16]: 0.088 µg/mL
